In data set [1] the test system is patients with recurrent or residual cervical carcinoma. Conditions: cited from earlier work.
Data set [2] addresses T1, HLA-A*6802 (human, UniProt P30375 25-308 (Gorilla gorilla entry), limits assumed).
T1 construct: purified HLA molecule; b2m and chain limits not described
T1 MHC heavy: not shown
Nature of the data set: competitive binding assay, purified HLA.

The target of data set [3] is T1, HLA-A*6802. Briefly: competitive inhibition assay, purified HLA.

In the case of aKXVAAWTLKAAa-NH2 [PADRE], the responding patients in data set [1] (95% interval 10-65%) is given as 33%. Besides, in data set [1] (immunocompromised cervical carcinoma patients), the safety result is on record as “favorable safety profile”. For the molecule VVLGVVFGI (native HER2/neu peptide) [Her2/neu.665], the IC50 in data set [2] and in data set [3] was 2000 nM each time. As for HLYQGCQVV (native HER2/neu peptide) [Her2/neu.48], the IC50 – broadly, the concentration that gives 50% inhibition – in data set [3] is 1140 nM.
